Assay [1] deals with T1, r murine EphA7 (mouse, UniProt Q61772).
T1 construct: recombinant Fc fusion (R&D Systems); also called rmuEphA7-Fc; mEphA7
T1 sequence (receptor-Fc fusion, looked up): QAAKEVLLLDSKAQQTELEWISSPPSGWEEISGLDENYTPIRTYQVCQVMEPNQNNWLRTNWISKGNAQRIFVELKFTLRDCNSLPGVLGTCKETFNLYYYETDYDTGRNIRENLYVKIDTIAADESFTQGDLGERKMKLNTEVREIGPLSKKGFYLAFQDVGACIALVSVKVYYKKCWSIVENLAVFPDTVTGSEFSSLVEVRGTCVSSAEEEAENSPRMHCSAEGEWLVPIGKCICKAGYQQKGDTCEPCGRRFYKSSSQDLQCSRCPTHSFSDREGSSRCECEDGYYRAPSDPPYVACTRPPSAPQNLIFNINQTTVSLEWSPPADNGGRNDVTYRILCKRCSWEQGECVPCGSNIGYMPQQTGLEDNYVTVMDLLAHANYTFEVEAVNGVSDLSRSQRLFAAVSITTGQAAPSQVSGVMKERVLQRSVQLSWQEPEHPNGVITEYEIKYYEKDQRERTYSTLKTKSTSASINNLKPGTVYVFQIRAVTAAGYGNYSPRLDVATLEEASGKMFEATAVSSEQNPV
The assay can be described thus: activity ELISA, Fab on coated antigen. As to the method:
(§1) More precisely, Nunc Maxisorp plates were coated with the following rEphA proteins: rhuEphAl-Fc, rmuEphA2-Fc, rmuEphA3-Fc, rmuEphA4-Fc, rratEphA5-Fc, rmuEphA6-Fc, rmuEphA7-Fc, rEphA8; all at 0.5 μg/well (all R&D Systems) rhuEphA2-Fc; 0.5 μg/well, and rhuEphA4-His; 0.1 μg/well (both produced at MedImmune, Inc.). Plates were blocked with 3% BSA+0.1% Tween20 for 2 h. […] Incubation with a goat anti-human kappa horseradish peroxydase (HRP) conjugate then followed. HRP activity was detected with TMB substrate and the reaction quenched with 0.2 M H₂SO₄. Plates were read at 450 nm. Data was analyzed by normalizing Fab concentrations to the corresponding activity data (see FIGS. 10B-10H).
(In general: An ELISA detects its analyte on a solid surface through an enzyme-linked reagent.)

The target in assay [2] is T2, r murine EphA4 (mouse, UniProt Q03137).
T2 construct: recombinant Fc fusion (R&D Systems); also called rmuEphA4-Fc; mEphA4
T2 sequence (Q03137 20-547 limits assumed): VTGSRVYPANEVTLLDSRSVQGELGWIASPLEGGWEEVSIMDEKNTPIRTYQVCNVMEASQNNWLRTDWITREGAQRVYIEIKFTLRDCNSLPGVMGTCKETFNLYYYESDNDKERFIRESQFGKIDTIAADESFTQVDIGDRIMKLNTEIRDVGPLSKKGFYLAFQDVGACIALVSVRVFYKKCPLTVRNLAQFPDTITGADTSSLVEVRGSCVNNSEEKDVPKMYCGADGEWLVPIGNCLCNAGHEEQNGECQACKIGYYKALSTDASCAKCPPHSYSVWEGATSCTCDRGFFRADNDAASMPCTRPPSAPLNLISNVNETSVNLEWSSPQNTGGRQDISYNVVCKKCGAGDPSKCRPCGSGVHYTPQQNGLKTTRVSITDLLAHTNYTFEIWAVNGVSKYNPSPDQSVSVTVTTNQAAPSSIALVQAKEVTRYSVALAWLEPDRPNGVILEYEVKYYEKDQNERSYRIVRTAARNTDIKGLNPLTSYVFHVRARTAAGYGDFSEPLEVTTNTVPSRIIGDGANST
In words: activity ELISA, Fab on coated antigen. Here is the method: as §1

Assay [3] deals with T3, r murine EphA8 (mouse, UniProt O09127).
T3 construct: recombinant (rEphA8, R&D Systems); also called rEphA8
T3 sequence (receptor, looked up): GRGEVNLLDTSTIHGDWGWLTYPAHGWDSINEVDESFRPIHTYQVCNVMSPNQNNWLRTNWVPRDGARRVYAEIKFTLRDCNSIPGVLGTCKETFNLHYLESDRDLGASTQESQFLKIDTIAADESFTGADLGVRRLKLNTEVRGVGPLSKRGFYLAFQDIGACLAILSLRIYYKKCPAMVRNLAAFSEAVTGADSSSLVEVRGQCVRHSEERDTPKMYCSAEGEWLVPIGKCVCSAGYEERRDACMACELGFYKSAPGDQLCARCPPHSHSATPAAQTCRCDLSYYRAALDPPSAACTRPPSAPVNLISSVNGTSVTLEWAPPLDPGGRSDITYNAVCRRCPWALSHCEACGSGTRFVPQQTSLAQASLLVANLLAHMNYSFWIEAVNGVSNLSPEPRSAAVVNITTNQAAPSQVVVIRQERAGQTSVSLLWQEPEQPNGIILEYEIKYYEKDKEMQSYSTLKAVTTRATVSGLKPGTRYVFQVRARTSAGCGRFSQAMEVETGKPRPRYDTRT
The assay can be described thus: activity ELISA, Fab on coated antigen. As to the method:
as §1

Assay [4] addresses T1, r murine EphA7. In words: activity ELISA, IgG on coated antigen. As to the method: (§2) Secondary screening of IgG constructs of affinity optimized combinatorial variants with additional EphA receptors: With purified IgG constructs of the nine combinatorial variants, additional secondary screening assays were performed using the Activity ELISA (see above) and recombinant EphA receptor proteins. More precisely, Nunc Maxisorp plates were coated with the following rEphA proteins: rhuEphAl-Fc; 0.5 μg/well, rmuEphA2-Fc; 0.5 μg/well, rmuEphA3-Fc: 0.1 μg/well, rmuEphA4-Fc; 0.1 μg/well, rratEphA5-Fc; 0.5 μg/well, rmuEphA6-Fc; 0.5 μg/well, rmuEphA7-Fc; 0.1 μg/well, rEphA8; 0.2 μg/well (all R&D Systems), rhuEphA2-Fc; 0.5 μg/well, and rhuEphA4-His; 0.1 μg/well (both produced at MedImmune, Inc.). Plates were blocked with 3% BSA+0.1% Tween20 for 2 h. […] Incubation with a goat anti-human kappa horseradish peroxydase (HRP) conjugate then followed. HRP activity was detected with TMB substrate and the reaction quenched with 0.2 M H₂SO₄. Plates were read at 450 nm. Data was analyzed by normalizing Fab concentrations to the corresponding activity data (see FIGS. 12A-12J and 14).

The target in assay [5] is T2, r murine EphA4. The assay can be described thus: activity ELISA, IgG on coated antigen. As to the method:
as §2

A further assay addresses T4, mEphA4 (mouse, UniProt Q03137).
T4 construct: part of an Fc fusion; also called rmuEphA4-Fc
In words: ELISA, receptor coated on the plate, purified IgG, anti-human kappa-HRP. As to the method: as §2

The next assay has as its target T5, mEphA7 (mouse, UniProt Q61772).
T5 construct: part of an Fc fusion; also called rmuEphA7-Fc
T5 sequence (receptor-Fc fusion, looked up): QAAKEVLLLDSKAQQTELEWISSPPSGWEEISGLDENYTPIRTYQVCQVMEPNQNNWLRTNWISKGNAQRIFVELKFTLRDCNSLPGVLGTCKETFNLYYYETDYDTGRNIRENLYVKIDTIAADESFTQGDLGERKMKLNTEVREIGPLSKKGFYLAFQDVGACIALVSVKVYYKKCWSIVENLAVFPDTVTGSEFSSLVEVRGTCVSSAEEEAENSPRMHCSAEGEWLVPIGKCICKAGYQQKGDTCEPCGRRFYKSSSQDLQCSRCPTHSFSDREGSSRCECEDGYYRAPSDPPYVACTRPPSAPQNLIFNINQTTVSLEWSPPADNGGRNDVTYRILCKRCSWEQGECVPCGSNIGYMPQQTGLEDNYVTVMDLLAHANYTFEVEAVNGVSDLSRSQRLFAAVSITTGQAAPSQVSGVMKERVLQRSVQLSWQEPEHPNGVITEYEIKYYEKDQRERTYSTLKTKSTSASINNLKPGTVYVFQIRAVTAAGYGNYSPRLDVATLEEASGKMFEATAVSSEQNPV
The description is as above. Here is the method: as §2

Assay [6] concerns the target T6, Human EphA4-Fc fusion protein (human, UniProt P54764 20-547).
T6 construct: not shown: Fc portion of a human IgG1
The assay can be described thus: BIAcore, IgG immobilized on the sensor chip, EphA4-Fc as analyte. Here is the method: FIG. 15A-15B. […] Binding affinities were measured using the BIAcore assay. […] Variant kinetic measurements for human EphA4 and were obtained using BIAcore with immobilized variant antibodies and human EphA4-Fc and EphA4-His as analytes.

Assay [7] deals with T7, r murine EphA8 (mouse, UniProt O09127).
T7 construct: recombinant soluble protein coated on the plate; also called mEphA8; rEphA8
T7 sequence (receptor construct, looked up): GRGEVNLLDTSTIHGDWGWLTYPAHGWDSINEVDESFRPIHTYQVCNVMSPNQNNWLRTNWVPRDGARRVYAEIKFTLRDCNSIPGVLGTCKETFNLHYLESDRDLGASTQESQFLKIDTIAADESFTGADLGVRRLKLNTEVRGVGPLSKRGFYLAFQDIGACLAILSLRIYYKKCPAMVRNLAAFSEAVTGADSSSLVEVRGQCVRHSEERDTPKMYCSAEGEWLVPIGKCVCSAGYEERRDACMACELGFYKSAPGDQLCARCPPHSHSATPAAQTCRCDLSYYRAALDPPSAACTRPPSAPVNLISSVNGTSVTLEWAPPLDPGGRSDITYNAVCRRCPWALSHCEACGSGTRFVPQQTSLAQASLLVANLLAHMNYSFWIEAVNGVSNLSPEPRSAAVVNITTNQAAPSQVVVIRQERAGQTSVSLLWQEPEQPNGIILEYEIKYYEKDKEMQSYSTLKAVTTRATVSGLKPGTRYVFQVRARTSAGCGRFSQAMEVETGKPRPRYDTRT
The assay can be described thus: Activity ELISA, receptor coated on the plate, purified IgG, anti-human kappa-HRP, OD 450 nm. Here is the method: as §2

What is called Kd is the constant that tells how readily two partners part at equilibrium. Higher therefore signals a looser complex. In general, koff refers to the first-order rate constant of dissociation. A word on the kon: it is the second-order rate constant of association. A high value points to fast association.

T6 sequence (P54764 20-547): as the sequence (Q03137 20-547 limits assumed) above, with A59P, S121N, G124V, Q250R, N251S, S270T, R378K, S406N counted along it
T4 sequence (Q03137 20-547 limits assumed): as the sequence (Q03137 20-547 limits assumed) above

B1: 2C9 Fab (affinity optimized combinatorial variant of Fab20) (Fab, V domains shown)
VH: QVQLLQSGAEVKKPGASVKVPCKASGYTFTSRAMSWVRQAPGQGLEWMGWINTNTGNPTYAQGFTGRFVFSLDTSVSTAYLQISSLKAEDTAVYYCARVRFTVYGDGMDVWGQGTLVTVSS
VL: EIVLTQSPATLSVSPGERATLSCRASQSVSSNLAWYQQKPGQAPRLLIYGASTRPTGIPDRFSASGSGTDFTLTISRVEPEDFAVYYCQQYGPSWTFGQGTKVEIK
Regarding B1, the binding result with r murine EphA7 [1], with r murine EphA4 [2] and in the assay with r murine EphA8 [3] was “binds” in each case.

B2: 2C9 IgG1 (affinity optimized combinatorial variant of mAb GEA44 in human IgG1 format) (antibody, V domains shown)
VH: QVQLLQSGAEVKKPGASVKVPCKASGYTFTSRAMSWVRQAPGQGLEWMGWINTNTGNPTYAQGFTGRFVFSLDTSVSTAYLQISSLKAEDTAVYYCARVRFTVYGDGMDVWGQGTLVTVSS
VL: EIVLTQSPATLSVSPGERATLSCRASQSVSSNLAWYQQKPGQAPRLLIYGASTRPTGIPDRFSASGSGTDFTLTISRVEPEDFAVYYCQQYGPSWTFGQGTKVEIK
Turning to B2, the binding result with r murine EphA7 [4], with r murine EphA4 [5], with mEphA4, with mEphA7 and with r murine EphA8 [7] was “binds” in each case. This molecule gave a Kd in assay [6] of 0.044 nM. The molecule also registered a koff in [6] of 1.91e-05 s⁻¹. Besides, the kon in assay [6] was found to be 434000 M⁻¹ s⁻¹.

The values are drawn from patent US20060121042A1 (AstraZeneca / MedImmune, published 2006).
